Reference: patent publication US20030148956A1 (PROCTER AND GAMBLE, published 2003)
Ends that are not written are not given here.

T1: corticotropin releasing factor 2 receptor
T1 sequence (Q13324 whole entry, species assumed, looked up): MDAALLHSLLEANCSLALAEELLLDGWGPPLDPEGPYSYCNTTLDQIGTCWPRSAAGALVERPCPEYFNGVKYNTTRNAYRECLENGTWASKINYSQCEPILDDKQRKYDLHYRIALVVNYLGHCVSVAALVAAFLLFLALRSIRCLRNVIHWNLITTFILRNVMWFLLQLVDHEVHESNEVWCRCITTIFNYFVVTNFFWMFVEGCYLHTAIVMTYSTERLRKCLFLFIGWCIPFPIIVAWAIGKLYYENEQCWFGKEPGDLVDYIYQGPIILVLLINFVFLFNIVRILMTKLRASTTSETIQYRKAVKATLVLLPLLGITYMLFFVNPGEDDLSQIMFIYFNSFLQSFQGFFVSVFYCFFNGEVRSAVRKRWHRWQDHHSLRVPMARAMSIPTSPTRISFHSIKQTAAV


Legend:
[1] = target: corticotropin releasing factor 1 receptor; assay: cell-based or functional assay
[2] = target: T1, corticotropin releasing factor 2 …; assay: cell-based or functional assay

| Binder | CRF1R EC50 [1] [nM] | CRF1R Emax % [1] [%] | CRF2R EC50 [2] [nM] | CRF2R Emax % [2] [%] |
| --- | --- | --- | --- | --- |
| DNPSLSIDLPLFLLRTLLELEKTQSQRERAEQNARIFDRV-NH2 [SEQ ID NO 336] | 1000 | 59.9 | 17.8 | 100 |
| DNPSLSIDLPLLLLRTLLELEKTQSQRERAEQNAQIFAHV-NH2 [SEQ ID NO 324] | 1000 | 46.6 | 17.2 | 100 |
| DNPSLSIDLPLILLRTLLELARTQSQRERAEQNARIFARV-NH2 [SEQ ID NO 330] | 1000 | 86.8 | 6 | 93.7 |
| IVLSLDVPIGLLQILLEQEKARAAREQATTNARILARV-NH2 [SEQ ID NO 325] | 100 | 5 | 11.7 | 100 |
| PSLSIDLPLLLLRTLLELEKTQSQRERAEQNARIFARV-NH2 [SEQ ID NO 333] | 1000 | 43.8 | 9.85 | 96.9 |
| PSLSIDLPLILLRTLLELEKTQSQRERAEQNARIFARV-NH2 [SEQ ID NO 332] | 1000 | 61.3 | 9.95 | 100 |
| DNPSLSIDLPLFLLRTLLELARTQSQRERAEQNARIFARV-NH2 [SEQ ID NO 329] | 1000 | 98.4 | 5.15 | 98.3 |
| DNPSLSIDLPLLLLRTLLELEKTQSQRERAEQNAHIFAHV-NH2 [SEQ ID NO 328] | 1000 | 30.7 | 11.7 | 95.7 |
| DNPSLSIDLPLILLRTLLELEKTQSQRERAEQNARIFDRV-NH2 [SEQ ID NO 337] | 1000 | 36.5 | 23.9 | 86.7 |
| DNPSLSIDLPLLLLRTLLELEKTQSQRERAEQNARIFDRV-NH2 [SEQ ID NO 338] | 1000 | 41.1 | 19.3 | 77.5 |
| DNPSLSIDLPLLLLRTLLELEKTQSQRERAEQNANIFANV-NH2 [SEQ ID NO 326] | 1000 | 30.1 | 33.7 | 100 |
| PSLSIDLPLFLLRTLLELEKTQSQRERAEQNARIFARV-NH2 [SEQ ID NO 331] | 1000 | 78.7 | 9.85 | 100 |
| DNPSLSIDLPLLLLRTLLELEKTQSQRERAEQNAQIFAQV-NH2 [SEQ ID NO 327] | 1000 | 36.5 | 28.4 | 100 |
| DNPSLSIDLPLFLLRTLLELEKTQSQRERAEQNARIFARV-NH2 [SEQ ID NO 334] | 1000 | 82.6 | 13.2 | 93.5 |
| DNPSLSIDLPLILLRTLLELEKTQSQRERAEQNARIFARV-NH2 [SEQ ID NO 335] | 1000 | 49.5 | 28.1 | 91 |
